Test results taken from paper PMC2759517 (2009).
Where no end group is shown, it is not given here.

T1: HA-tagged PA of FluB (Influenza B virus)
T1 chain: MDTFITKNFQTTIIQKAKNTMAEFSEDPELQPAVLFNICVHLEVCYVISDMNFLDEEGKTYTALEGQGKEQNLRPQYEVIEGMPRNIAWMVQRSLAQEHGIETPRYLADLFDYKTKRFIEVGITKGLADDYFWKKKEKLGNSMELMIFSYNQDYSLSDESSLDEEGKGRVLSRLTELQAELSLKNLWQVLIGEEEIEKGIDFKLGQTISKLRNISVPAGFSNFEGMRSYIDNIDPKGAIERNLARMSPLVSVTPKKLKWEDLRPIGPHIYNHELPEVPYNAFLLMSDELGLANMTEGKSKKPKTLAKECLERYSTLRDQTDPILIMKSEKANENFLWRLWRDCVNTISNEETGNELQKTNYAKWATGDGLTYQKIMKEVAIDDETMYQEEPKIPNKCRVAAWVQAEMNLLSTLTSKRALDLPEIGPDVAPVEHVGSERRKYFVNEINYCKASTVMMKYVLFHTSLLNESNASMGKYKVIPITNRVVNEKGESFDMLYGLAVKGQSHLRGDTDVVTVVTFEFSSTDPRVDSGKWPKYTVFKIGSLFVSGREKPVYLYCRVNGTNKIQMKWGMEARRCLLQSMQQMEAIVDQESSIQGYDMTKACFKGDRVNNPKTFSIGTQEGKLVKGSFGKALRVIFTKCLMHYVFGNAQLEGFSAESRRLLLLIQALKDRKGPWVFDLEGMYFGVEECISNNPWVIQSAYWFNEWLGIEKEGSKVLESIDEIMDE


How the values were obtained:
HA-tagged PA of FluA = HA-tagged PA of FluA (Influenza A virus); assay: ELISA
HA-tagged PA of FluB = biological target: T1, HA-tagged PA of FluB; assay: ELISA

Binder	IC50 (HA-tagged PA of FluA) [nM]	IC50 (HA-tagged PA of FluB) [nM]
MNINPYFLFIDVPIQ-NH2 [PB1_(1–15)B competitor peptide]	> 3000	45
MDVNPTLLFLKVPAQ-NH2 [PB1_(1–15)A competitor peptide]	–	> 3000
